Here are results for 2 molecules from PMC9579167, “Structure of the proteolytic enzyme PAPP-A with the endogenous inhibitor stanniocalcin-2 reveals its inhibitory mechanism” (Nature Communications, 2022).

Data set [1] addresses T1, 415-residue monomeric C-terminal PAPP-A fragment, PA(T1213-G1627) (human, UniProt Q13219 1213-1627).
T1 construct: PAPP-A, human, residues T1213-G1627 (SCR1-5 and the C domain with LNR3); also called PAPP-A(T1213-G1627); C-terminal fragment of PAPP-A truncated at SCR1; source: 293T cells, transient transfection
T1 sequence (looked up): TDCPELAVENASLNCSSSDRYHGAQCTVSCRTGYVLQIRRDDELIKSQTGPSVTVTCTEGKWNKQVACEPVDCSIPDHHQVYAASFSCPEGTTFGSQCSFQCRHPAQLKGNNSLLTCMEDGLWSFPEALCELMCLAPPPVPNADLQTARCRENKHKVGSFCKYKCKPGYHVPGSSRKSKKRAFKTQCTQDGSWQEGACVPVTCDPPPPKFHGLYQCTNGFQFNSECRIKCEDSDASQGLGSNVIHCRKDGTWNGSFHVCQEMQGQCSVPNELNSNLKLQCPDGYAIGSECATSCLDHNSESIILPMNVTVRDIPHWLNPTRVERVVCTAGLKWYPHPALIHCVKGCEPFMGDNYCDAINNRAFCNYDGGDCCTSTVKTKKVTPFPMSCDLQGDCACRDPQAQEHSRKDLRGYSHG
Briefly: SPR; Biacore 3000, 25 °C; PA_T1213-G1627 amine-coupled to CM5 (7000 RU); IGFBP-4 injected 5 min at 10 µl/min; 10 mM HEPES pH 7.5, 150 mM NaCl, 2 mM CaCl2, 0.05% Tween-20; also with 10 mM EDTA. The note with it: both partners purified.

Data set [2] deals with the molecule itself. As to the kind of experiment: cryo-EM structure; single-particle cryo-EM of the purified 2:2 PAPP-A(E563Q)·STC2 complex from co-cultured 293T lines; 0.6 mg/mL; 20 mM HEPES, 100 mM NaCl, 1 mM CaCl2, pH 7.4.

B1: human IGFBP-4 (natural protein, UniProt P22692 22-258, looked up)
chain: DEAIHCPPCSEEKLARCRPPVGCEELVREPGCGCCATCALGLGMPCGVYTPRCGSGLRCYPPRGVEKPLHTLMHGQGVCMELAEIEAIQESLQPSDKDEGDHPNNSFSPCSAHDRRCLQKHFAKIRDRSTSGGKMKVNGAPREDARPVPQGSCQSELHRALERLAASQSRTHEDLYIIPIPNCDRNGNFHPKQCHPALDGQRGKCWCVDRKTGVKLPGGLEPKGELDCHQLADSFRE
notes: also called pBP4mH; source: 293T cells, transient transfection
In the case of B1, the binding result in data set [1] is reported as “binds”.

B2: active site-inactivated human PAPP-A (E563Q) (enzyme, UniProt Q13219 82-1627, looked up)
chain: EARGATEEPSPPSRALYFSGRGEQLRLRADLELPRDAFTLQVWLRAEGGQRSPAVITGLYDKCSYISRDRGWVVGIHTISDQDNKDPRYFFSLKTDRARQVTTINAHRSYLPGQWVYLAATYDGQFMKLYVNGAQVATSGEQVGGIFSPLTQKCKVLMLGGSALNHNYRGYIEHFSLWKVARTQREILSDMETHGAHTALPQLLLQENWDNVKHAWSPMKDGSSPKVEFSNAHGFLLDTSLEPPLCGQTLCDNTEVIASYNQLSSFRQPKVVRYRVVNLYEDDHKNPTVTREQVDFQHHQLAEAFKQYNISWELDVLEVSNSSLRRRLILANCDISKIGDENCDPECNHTLTGHDGGDCRHLRHPAFVKKQHNGVCDMDCNYERFNFDGGECCDPEITNVTQTCFDPDSPHRAYLDVNELKNILKLDGSTHLNIFFAKSSEEELAGVATWPWDKEALMHLGGIVLNPSFYGMPGHTHTMIHQIGHSLGLYHVFRGISEIQSCSDPCMETEPSFETGDLCNDTNPAPKHKSCGDPGPGNDTCGFHSFFNTPYNNFMSYADDDCTDSFTPNQVARMHCYLDLVYQGWQPSRKPAPVALAPQVLGHTTDSVTLEWFPPIDGHFFERELGSACHLCLEGRILVQYASNASSPMPCSPSGHWSPREAEGHPDVEQPCKSSVRTWSPNSAVNPHTVPPACPEPQGCYLELEFLYPLVPESLTIWVTFVSTDWDSSGAVNDIKLLAVSGKNISLGPQNVFCDVPLTIRLWDVGEEVYGIQIYTLDEHLEIDAAMLTSTADTPLCLQCKPLKYKVVRDPPLQMDVASILHLNRKFVDMDLNLGSVYQYWVITISGTEESEPSPAVTYIHGSGYCGDGIIQKDQGEQCDDMNKINGDGCSLFCRQEVSFNCIDEPSRCYFHDGDGVCEEFEQKTSIKDCGVYTPQGFLDQWASNASVSHQDQQCPGWVIIGQPAASQVCRTKVIDLSEGISQHAWYPCTISYPYSQLAQTTFWLRAYFSQPMVAAAVIVHLVTDGTYYGDQKQETISVQLLDTKDQSHDLGLHVLSCRNNPLIIPVVHDLSQPFYHSQAVRVSFSSPLVAISGVALRSFDNFDPVTLSSCQRGETYSPAEQSCVHFACEKTDCPELAVENASLNCSSSDRYHGAQCTVSCRTGYVLQIRRDDELIKSQTGPSVTVTCTEGKWNKQVACEPVDCSIPDHHQVYAASFSCPEGTTFGSQCSFQCRHPAQLKGNNSLLTCMEDGLWSFPEALCELMCLAPPPVPNADLQTARCRENKHKVGSFCKYKCKPGYHVPGSSRKSKKRAFKTQCTQDGSWQEGACVPVTCDPPPPKFHGLYQCTNGFQFNSECRIKCEDSDASQGLGSNVIHCRKDGTWNGSFHVCQEMQGQCSVPNELNSNLKLQCPDGYAIGSECATSCLDHNSESIILPMNVTVRDIPHWLNPTRVERVVCTAGLKWYPHPALIHCVKGCEPFMGDNYCDAINNRAFCNYDGGDCCTSTVKTKKVTPFPMSCDLQGDCACRDPQAQEHSRKDLRGYSHG
modifications: N-glycans at N390, N402, N429, N480, N601, N725, N825, N1323
notes: numbers count on UniProt Q13219; also called pregnancy-associated plasma protein-A; pappalysin-1
Take B2: the binding result in data set [2] is on record as “binds”.
